The source of these data is patent US20250108100A1, “C-TERMINAL FRAGMENT OF APOLIPOPROTEIN E AND APPLICATION THEREOF IN INHIBITING y-SECRETASE ACTIVITY” (SYNPHATEC (SHANGHAI) BIOPHARMACEUTICAL TECHNOLOGY CO., LTD., priority 2022, published 2025).

“Also recorded” adds a separate entry of the source.

One data set concerns APLP1. Put plainly: γ-cleavage of APLP1 expressed in HEK 293T cells (Western blot). Type of data set: cell-based. The following applies: PF03084014 at 1 μM. As for the experimental part:
(§1) • a) A plasmid expressing the target protein in mammalian cells was constructed, and the protein expression promoter is CAG. • b) The target protein was expressed in HEK 293T cell line. Cells were subcultured one day before transfection, and transfection was performed when the degree of cell adhesion reached 70%-80%. The transfection reagent was lipofectamine2000 (ThermoFisher). • c) 4-6 hours post transfection, the medium were replaced with fresh cell culture medium. • d) 36-48 hours post transfection, the cells were lysed (10% 1M tris-HCl (pH=6.8), 4% SDS, 20% glycerol, 0.01% bromophenol blue), and the protein samples were collected and used for Western blot or stored in a −80° C. freezer. • e) Polyacrylamide gel electrophoresis. Before protein loading, the protein was boiled at 98° C. for 10 min, and then centrifuged at 12000 rpm for 10 min. Electrophoresis: 80V for the upper stacking gel; 120V for the lower separating gel. • f) Protein transfer. […]
Plasmids were transfected in HEK 293T or N2A cells for 36-48 hours and then lysed in cell lysis buffer [10% 1M tris-HCl (pH=6.8), 4% SDS, 20% glycerol, 0.01% bromophenol blue]. […] Finally, after washing 3 times with 1×TBST, the signal was detected by ECL Western blotting substrate (Solarbio, PE0010).
Background: Immunoblotting shows a protein as a band on a membrane.

The test system of data set [1] is human pluripotent stem cell-induced neurons. As to the kind of experiment: Endogenous Aβ40 in human pluripotent stem cell-induced neurons (lentivirus, ELISA). In kind it is cell-based. As for the experimental part: • a) Construction of lentivirus expression plasmids, lentivirus-GFP and lentivirus-ApoE CT, which can be specifically expressed in neurons. • b) The lentivirus vectors were cotransfected with coat protein vectors (PSPAX2 and PMD2G) in HEK 293T cell line. Cells were subcultured one day before transfection, and transfection was performed when the degree of cell adhesion reached 70%-80%. The transfection reagent was Polyjet (SignaGen). • c) 36-48 hours after the transfection, the cell culture was collected and filtered through a 0.22 μm filter membrane. • d) The filtered cell culture solution was ultracentrifuged. Centrifuged at 20000 rpm, 4° C. for 2 hours and 5 minutes. • e) After centrifugation, the supernatant was removed, and the precipitation of every three precipitates of 10 cm cell culture medium was resuspended with 50 μl of PBS. • f) The resuspended virus was subpackaged and stored in a −80° C. refrigerator for subsequent experiments.
(§2) 48 hours after transfection of HEK 293T cells and N2A cells, or 4.5 days after lentivirus infection of neurons, media and lysates were collected. Aβ40 and Aβ42 in the culture medium and cell lysates were detected by an Aβ ELISA kit as indicated in the protocol. (Invitrogen Technology; KHB3481 for human Aβ40, KHB3441 for human Aβ42 and KMB3481 for mouse Aβ40).
A general note: ELISA stands for enzyme-linked immunosorbent assay.

For data set [2], the system named is HEK 293T cells expressing APP. Put plainly: APP-expressing HEK 293T cells co-incubated with culture medium containing secreted ApoE2 or ApoE CT: α-CTF. In kind it is cell-based, human. The following applies: vs GFP control. As for the experimental part: as §1
The subject of data set [3] is APP and BACE1 co-expressed in N2A cells. As to the kind of experiment: Aβ40 ELISA in N2A cells co-expressing APP and BACE1. Type of data set: cell-based, mouse. As for the experimental part:
as §2
Data were analyzed by GraphPad Prism software (v6) using unpaired, paired, or one-sample t-tests. Aβ40 and Aβ42 levels were normalized to the corresponding GFP controls. α-CTF levels were normalized to FL-APP and corresponding GFP controls. All data are represented as mean±SEM. Statistical significance was defined as p<0.05. One, two, three and four stars (*) in the graph indicate p-values <0.05, <0.01, <0.001 and <0.0001, respectively.

For another data set, the system named is N100 (NOTCH fragment). Put plainly: γ-cleavage of NOTCH fragment N100 in HEK 293T cells co-expressing γ-secretase (Western blot). In kind it is cell-based. The note with it: N100-V5 and γ-secretase, PF03084014 at 1 uM. As for the experimental part: Plasmids were transfected in HEK 293T or N2A cells for 36-48 hours and then lysed in cell lysis buffer [10% 1M tris-HCl (pH=6.8), 4% SDS, 20% glycerol, 0.01% bromophenol blue]. Lysates were shaken at room temperature for 10 min, then boiled for 10 min, and centrifuged at 12,000×g for 10 min. Proteins were run on 8% or 12% Tris-glycine SDS-PAGE and transferred to PVDF membranes (Life Technologies). Samples were incubated overnight at 4° C. with primary antibody diluted in 5% BSA buffer (in 1×TBST). After washing 3 times with 1×TBST, they were incubated with secondary antibody diluted in 5% BSA buffer (in 1×TBST) for 2 hours at room temperature. Finally, after washing 3 times with 1×TBST, the signal was detected by ECL Western blotting substrate (Solarbio, PE0010).

A further data set concerns APPSW. As to the kind of experiment: Aβ40 produced by Swedish APP mutant (APPSW) in HEK 293T cells (ELISA). Type of data set: cell-based, human. The following applies: HEK 293T cells expressing APPSW. As for the experimental part:
as §2

The next data set has as its system 5×FAD mice. As to the kind of experiment: Distribution of neuronally expressed ApoE around amyloid plaques in 5×FAD mice (immunofluorescence). Type of data set: in vivo, mouse. As for the experimental part:
Mice were anesthetized with isoflurane and perfused with 4% PFA. Dissected mouse brains were fixed overnight in 4% PFA and cryoprotected overnight in 30% sucrose. A cryostat (Leica CM3050S) was used to obtain frozen brain slices ([…]) from fixed and cryoprotected mouse brains. Floating slices were washed 3 times with 1×PBS and then permeabilized with 0.5% Triton-X in 1×PBS for 30 minutes. After blocking with 5% BSA in 1×PBS at room temperature for 1 h, the slices were incubated overnight at 4° C. in 5% BSA (in 1×PBS) buffer comprising the primary antibody. Slices were washed 3 times with 1×PBS and incubated with secondary antibody diluted in 5% BSA (1×PBS) buffer for 1 hour at room temperature. Samples were then washed 3 times with 1×PBS and mounted with Prolong Gold Antifade Mountant (Life Technology).
After being deeply anesthetized with isoflurane, mice (5 weeks old) were placed in a stereotaxic apparatus (RWD Instruments). The zero point (x, y, z, 0, 0, 0) is Bregma. Lentivirus (lentivirus-GFP, lentivirus-ApoE and lentivirus-ApoE-IRES-GFP) and AAV (AAV2/9-hSyn-EGFP-WPRE-pA and AAV2/9-hSyn-ApoECT; purchased from Shanghai Taitool Bioscience Co. Ltd.) were injected into the cortex (x, y, z, +/−1.6, 0, −1) or hippocampus (x, y, z, +/−1.5, −2, −1.5), injected 1 ul on each injection site. The mice were then returned to their cages for rehabilitation after surgery.

B1: ApoE CT: C-terminal fragment of ApoE, positions 216-299 of SEQ ID NO: 12; SEQ ID NO: 33 (protein)
chain: ARMEEMGSRTRDRLDEVKEQVAEVRAKLEEQAQQIRLQAEAFQARLKSWFEPLVEDMQRQWAGLVEKVQAAVGTSAAPVPSDNH
Regarding B1, the “α-like CTF of APLP1” value in the data set with APLP1 is on record as “does not increase the α-like CTF of APLP1; also recorded: did not increase the α-like CTF”. Besides, the “reduction in Aβ40 production” value in data set [1] (hiPSC-induced neurons, lentiviral infection) is “approximately 46%”. The “endogenous Aβ40” value in data set [1] (human neurons from pluripotent stem cell line, lentivirus) is listed as “also reduces endogenous Aβ40”. Besides, the “endogenous production of Aβ40” value in data set [1] (human pluripotent stem cell-induced neurons) is on record as “about 54 % of controls”. The “α-CTF produced by APP in cells co-incubated with protein in culture medium” value in data set [2] is listed as “does not significantly alter α-CTF levels; also recorded: does not change the α-CTF; also recorded: does not alter the α-CTF”. Moreover, the “total Aβ40” value in data set [3] is given as “significantly reduced”. The “γ-secretase-dependent reduction of N100” value in the data set with N100 (NOTCH fragment) was “failed to suppress”. Moreover, in the data set with APPSW, the “Aβ40 in cell lysates, reduced by” value is listed as “approximately 43%” and the “Aβ40 in the medium, reduced by” value is “approximately 76%”. Moreover, in the data set on 5×FAD mice (AAV expression in cortex, DG and CA3 neurons), the “migration to and accumulation around amyloid plaques” value was “migrated to the subiculum and accumulated in amyloid plaques”. Besides, in the data set with 5×FAD mice (lentiviral vectors), the “accumulation around amyloid plaques” value is on record as “a similar distribution pattern was detected around amyloid plaques”.
